# In article PMC5626478, “LARP4 mRNA codon-tRNA match contributes to LARP4 activity for ribosomal protein mRNA poly(A) tail length protection”:
# B1: A15 3'-OH (ssRNA)
# RNA: AAAAAAAAAAAAAAA
# Biological target: LARP4-NTD (1-286) (human, UniProt Q71RC2 1-286)
# Assay: EMSA; EMSA as described in Yang et al. 2011; buffer, salt, pH and temperature not given; protein in uM
# Conditions: protein: recombinant
# Chain of LARP4-NTD (1-286) (Q71RC2 1-286): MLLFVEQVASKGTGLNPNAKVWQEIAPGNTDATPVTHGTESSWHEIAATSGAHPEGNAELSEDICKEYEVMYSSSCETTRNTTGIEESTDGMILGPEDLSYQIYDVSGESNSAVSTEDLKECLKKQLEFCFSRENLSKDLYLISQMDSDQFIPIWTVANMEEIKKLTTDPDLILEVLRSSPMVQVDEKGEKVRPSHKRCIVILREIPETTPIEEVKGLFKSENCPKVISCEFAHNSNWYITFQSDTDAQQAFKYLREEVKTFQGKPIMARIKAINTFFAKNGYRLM
binder,measurement,value
B1,binding result,binds
